± gives the standard deviation of the averaged measurements.
Test system: ATP
Test: switch fluorescence ratio, 500 uM ATP over buffer (Cy3 cluster intensity, sum of 5 cycles each) (fold (ratio)); higher = stronger signal-on switching upon ATP binding; sequences stand for … in TCGTCGGCAGCGTCAGATGTGTATAAGAGACAGTTTTTTTTTTTTTTTTTTTTTTTTT…TC
Settings: aptamer strand: ATP DNA aptamer (quencher-CACCTGGGGGAGTATTGCGGAGGAAGG + anchor), 100 nM annealed; ATP concentration: 500 uM
In short: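 Cy3-labelled switching-strand clusters on a modified Illumina MiSeq flow-cell were annealed to 100 nM quencher-labelled ATP aptamer, imaged in selection buffer, then imaged after 15 min with 500 uM ATP at 22 °C. Five buffer/ATP cycles ran, with NaOH stripping and re-annealing between them. The fluorescence ratio is summed target-cycle over summed buffer-cycle Cy3 intensity per cluster, averaged per switch-domain sequence. Clusters outside 100-1000 RFU were excluded.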
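Note: ATP exposure 15 min at 22 °C before imaging.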

Row | Sequence | switch fluorescence ratio
1 | TTATTTCGTG | 0.998 ± 0.03
2 | TGATAGAGGA | 0.988 ± 0.059
3 | CGATGTATAA | 1.01 ± 0.025
4 | AGTTGGTATT | 0.998 ± 0.015
5 | TTAAAGATAT | 1.23 ± 0.32
6 | GGGCTTGCAA | 1.04 ± 0.016
7 | GATTTTATGT | 1.05 ± 0.086
8 | TTAAGAACGG | 1.03 ± 0.075
9 | GAGATTGCGC | 1.02 ± 0.046
10 | GGGGTCAGCG | 0.974 ± 0.012
11 | AATATTATTA | 1.019 ± 0.0041
12 | TTGTTTTTGG | 0.987 ± 0.032
13 | AAAGACCGTG | 1.02 ± 0.033
14 | GGTGAACAGT | 0.97143 ± 0.00048
15 | ACCGCGCGAC | 2.49 ± 0.053
16 | CTTTTAGGCT | 1.02 ± 0.092
17 | TTCTAGGCGG | 1.03 ± 0.029
18 | ATGGGCTTAC | 1.2301 ± 0.00072
19 | AGTATGTCGT | 1.03 ± 0.024
20 | GGGGTTCCTT | 1 ± 0.034
21 | ATATTTAACC | 1.02 ± 0.025
22 | GTTTATGCAC | 1.06 ± 0.084
23 | TGGAGAGGAT | 0.9825 ± 0.0026
24 | TTAATTAATG | 1.05 ± 0.089
25 | CGACCTTTTC | 1.4 ± 0.34

Row | Sequence | switch fluorescence ratio
26 | CCTTCTAGTT | 1.035 ± 0.0018
27 | ATGGGATGCG | 0.981 ± 0.016
28 | TTATAAGAGT | 0.987 ± 0.025
29 | TTAAGCCAGG | 1.16 ± 0.14
30 | TATACATCTG | 1.0055 ± 0.00054
31 | AATTAGTCTA | 1.01 ± 0.03
32 | GCACTTTTCG | 1.01 ± 0.025
33 | TAGAGGGAGG | 0.967 ± 0.014
34 | ATACGGGTTT | 1.024 ± 0.0097
35 | ACGTAGAAAT | 1.35 ± 0.022
36 | ACAGGGTTAC | 0.991 ± 0.027
37 | TTGTGGGGAC | 1 ± 0.033
38 | TCTGTCTGAG | 0.988 ± 0.027
39 | AGGGGGGCGT | 1.01 ± 0.016
40 | TAAAGGAAAG | 1.02 ± 0.03
41 | TCATTCGCAG | 3.73 ± 0.77
42 | TTTTGTTTAG | 0.992 ± 0.021
43 | CGGGATATAT | 0.994 ± 0.028
44 | TAGGAGGAGT | 0.951 ± 0.017
45 | ATAGGGGCTT | 0.9989 ± 0.0085
46 | TTCGGAGTAC | 1.38 ± 0.14
47 | GGTTTTTCGA | 0.983 ± 0.034
48 | GTGGTGTTTT | 1 ± 0.015
49 | GCCTGAGCTG | 1.024 ± 0.0094
50 | GTGGGGTAAG | 0.987 ± 0.014

Row | Sequence | switch fluorescence ratio
51 | GAGGATTCAT | 1.04 ± 0.085
52 | ACAGTGCCGG | 1.02 ± 0.055
53 | AGTGTTTCTG | 0.973 ± 0.049
54 | GAGAGGACAT | 0.996 ± 0.011
55 | CATGGTTCGT | 0.975 ± 0.025
56 | GGGAGAATTT | 1.29 ± 0.43
57 | GGATTCAGGC | 0.981 ± 0.027
58 | GCTGGGGCCA | 1.023 ± 0.0017
59 | TATAAGAGCG | 1.004 ± 0.0065
60 | TTGCCTAATG | 0.972 ± 0.035
61 | CGCTGCTAAT | 1.58 ± 0.08
62 | ATGATGCTTG | 0.993 ± 0.045
63 | TTACGGCTGC | 1.03 ± 0.058
64 | CACTCGAGTC | 0.978 ± 0.011
65 | GCCAATTTGC | 1.02 ± 0.07
66 | TTAGTGGGGC | 1.03 ± 0.041
67 | ACAAATGCAG | 1.01 ± 0.013
68 | CGAGGATAGG | 0.999 ± 0.035
69 | GAGGGGATAT | 1.38 ± 0.59
70 | CCGGGCGAGC | 1.08 ± 0.059
71 | GATGTGGGTG | 0.9957 ± 0.0054
72 | CAATTTTGTG | 0.9807 ± 0.007
73 | TATCCTGGCG | 1.03 ± 0.057
74 | TATCTGGGTG | 1.06 ± 0.029
75 | AAAAGTCAAT | 1.004 ± 0.0089

Row | Sequence | switch fluorescence ratio
76 | ATATTCGATT | 0.999 ± 0.027
77 | CATATTTGAC | 1.04 ± 0.074
78 | TGCTAGGGAA | 0.975 ± 0.015
79 | AAAGGCCGT | 1.016 ± 0.0077
80 | ATATGCGGGT | 0.985 ± 0.032
81 | TGGTCGTGGG | 1.01 ± 0.032
82 | TCCGAGTTGG | 1.05 ± 0.023
83 | CATACGGTTT | 1.05 ± 0.024
84 | AGAGTTTGAA | 1.02 ± 0.024
85 | TTGGAATGT | 1.029 ± 0.0083
86 | GGGTAACGGC | 1.01 ± 0.089
87 | CGGTTACGAG | 0.9952 ± 0.0029
88 | TTGCTGCAAA | 1.1 ± 0.12
89 | TGATAATGTT | 0.997 ± 0.014
90 | GATAGGTTCG | 0.983 ± 0.016
91 | TACATACTCT | 1.29 ± 0.023
92 | CGGCGTACTG | 1.03 ± 0.059
93 | AACAGTGAAA | 1.02 ± 0.02
94 | AAAGAGGGTT | 1.02 ± 0.019
95 | CGCGGGGGCG | 0.991 ± 0.025
96 | TATCCCCCGG | 1.95 ± 1.2
97 | TGACCGGAGT | 1.03 ± 0.033
98 | TAAACCTGTG | 1.05 ± 0.088
99 | GTTCCGGTTT | 1.01 ± 0.034
100 | CGCGACGGGG | 1.03 ± 0.029
